IntAct's records for PubMed 12354775

B1: Protein naked cuticle (Drosophila melanogaster (Fruit fly)), Q9VVV9 (parent)
chain: MAGNIVKWWKHKILGGYKQFSVQECTTDSEELMYHQVRASSSCSAPPDLLLVSERDNNIQLRSPVVNIITTPPGNASGAGSKQQSHHQTNHHSSGRSHPGHTAHPQDVSSGGSHSKHLRISSTSNGKHGKYSNMQQQLPQDEDVVDAAATMQQQQHTGHAHSRHLHHHKEERIRLEEFTCDVSVEGGKSSQPLQFSFTFYDLDGHHGKITKDDIVGIVYTIYESIGKSVVVPHCGSKTINVRLTVSPEGKSKSQPVVPVPVAAGFSSSHASKLKKLPTGLAAMSKPLAGGGVGSGGASALTTSAGNRRQHRYRPRKLIKSDDEDDDSNSEKEKDAAHAPAADQPSGSGTKATGKSHHHQSQSARYHQKNNSRAEQCCTEQNTPDNGHNTYENMLNLKCCKPEVDQVDCPSHRQHHQSHPNHQMRQQDIYMKQATQRVKMLRRARKQKYQDHCLETRQRSLSVGNDSACPNRHLQLQQPPVGHPQPQSLNHKSASGSPPLGVGGGGDMMLDGVQLRQPRPHSLTPHQHQQQNQQQQQQQRKSAECWKSALNRNDLISIIRESMEKNRLCFQLNGKPQANVSPIRQPAAQQQPQQQQRQRCNTGSKIPTLITNHSPVAQQSPLSCSPPTAEPTTPSIPAAPPAIEVNGQQHHPTHPTHPSHHNHHEHPQPHIPIYHQQLAINPAVLAAQQTHNTAHNKLNLCGYDSFLHATICGGGAAAHSPPATPSNVATVQPIPKKSQKNLLQGYQRLEQSQQQQQQQRSSKDYKNYGNLIYAKLSEQLQQKDREQRRQRHKQQQHQMLQDQPKDASRSEQRPPTSNSSSAGSKIYGDAVECAHLLASEEEDLPPSPQLTSTPSKVVSTDTLIDLNDDVGEAVAEAVTEGGKQSLEAEESGQQVEVELDTSASSSMIHRYVHEHIHHHYHHFKEQQDV

Variants of: B1
Settings: with dsh_drome dsh

| Variant | effect of a mutation on the interaction |
| --- | --- |
| D201A | decreasing interaction |
| D213V | decreasing interaction |
